From patent US20220259593A1, “CONTROL OF MAMMALIAN GENE DOSAGE USING CRISPR” (The Regents of the University of California, priority 2019, published 2022)

Tested on: K562 CRISPRi cells
Assay: Constant region variant library pooled growth screen, K562
Type: cell-based, human
Settings: sgRNA constant region variants
Procedure, shortened: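 Growth screens in K562 CRISPRi cells were harvested 4-8 days post-selection at >2000× library coverage. Each variant's phenotype was referenced to the unmodified constant region with the same targeting sequence.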

[1] = relative to the original, un-modified constant region cr995 (= 1)
[2] = activity relative to the original, un-modified constant region cr995

Molecule | Mean relative activity [1] | Mean relative activity [2]
cr412 (nucleic acid, listed as DNA, chemistry not fully specified) guide: GTTTAAGAGCTAAGCTGGAAACAGCATAGCAAGTTTAAATAAGGCTAGTCCGTTATCAAGTTGAAAAACTGGCACCGAGTCGGTGCT | 1.025 | 
cr019 (nucleic acid, listed as DNA, chemistry not fully specified) guide: GTTTAACAGCTAAGCTGGAAACAGCATAGCAAGTTTAAATAAGGCTAGTCCGTTATCAACTTGAAAAAGTGGCACCGAGTCGGTGCT | 1.019 | 
cr140 (nucleic acid, listed as DNA, chemistry not fully specified) guide: GTTTAAGAGCTAAGCTGGAAACAGCATAGCAAGTTTAAATAAGGCTAGTCCGTTATCAATCTGAAAAGATGGCACCGAGTCGGTGCT | 1.023 | 
cr948 (nucleic acid, listed as DNA, chemistry not fully specified) guide: GTTTAAGAGCTAAGCTGGAAACAGCATAGCAAGTTTAAATAAGGCTAGTCCGTTATCAACTTGAAAGAGTGGCACCGAGTCGGTGCT | 1.02 | 
cr600 (nucleic acid, listed as DNA, chemistry not fully specified) guide: GTTTAAGAGCTAAGCTGGAAACAGCATAGCAAGTTTAAATAAGGCTAGTCCGTTATCAAGTTGAGAAACTGGCACCGAGTCGGTGCT | 1.021 | 
cr710 (nucleic acid, listed as DNA, chemistry not fully specified) guide: GTTTAAGAGCTAAGCTGGAAACAGCATAGCAAGTTTAAATAAGGCTAGTCCGTTATCAACTTGAAAAAGTGGCAGCGAGTCGCTGCT | 1.021 | 
cr925 (nucleic acid, listed as DNA, chemistry not fully specified) guide: GTTTAAGAGCTAAGCTGGAAACAGCATAGCAAGTTTAAATAAGGCTAGTCCGTTATCATCGAGAAATCGAGGCACCGAGTCGGTGCT |  | 1.084
cr408 (nucleic acid, listed as DNA, chemistry not fully specified) guide: GTTTAAGAGCTAAGCTGGAAACAGCATAGCAAGTTTAAATAAGGCTAGTCCGTTATCAACTTGAGAAAGTGACACCGAGTCGGTGTT | 1.018 | 
cr020 (nucleic acid, listed as DNA, chemistry not fully specified) guide: GTTTAATAGCTAAGCTGGAAACAGCATAGCAAGTTTAAATAAGGCTAGTCCGTTATCAACTTGAAAAAGTGGCACCGAGTCGGTGCT | 1.02 | 
cr929 (nucleic acid, listed as DNA, chemistry not fully specified) guide: GTTTAAGAGCTAAGCTGGAAACAGCATAGCAAGTTTAAATAAGGCTAGTCCGTTATCAACTTGAAAAAGTGTCACCGAGTCGGTGCT | 1.025 | 
cr565 (nucleic acid, listed as DNA, chemistry not fully specified) guide: GTTTAAGAGCTAAGCTGGAAACAGCATAGCAAGTTTAAATAAGGCTAGTCCGTTATCAACGCGAAAGCGTGGCACCGAGTCGGTGCT |  | 1.085
cr896 (nucleic acid, listed as DNA, chemistry not fully specified) guide: GTTTAAGAGCTAAGCTGGAAACAGCATAGCAAGTTTAAATAAGGCTAGTCCGTTATCAACTTGAAAAAGTGGACCCGAGTCGGGTCT | 1.025 | 
cr858 (nucleic acid, listed as DNA, chemistry not fully specified) guide: GTTTAAGAGCTAAGCTGGAGACAGCATAGCAAGTTTAAATAAGGCTAGTCCGTTATCAACTTGAAAAAGTGGCACCGAGTCGGTGCT | 1.025 | 
cr323 (nucleic acid, listed as DNA, chemistry not fully specified) guide: GTTTAAGAGCTAAGCTGGAAACAGCATAGCAGGTTTAAATAAGGCTAGTCCGTTATCAACTTGACAAAGTGGCACCGAGTCGGTGCT | 1.02 | 
cr730 (nucleic acid, listed as DNA, chemistry not fully specified) guide: GTTTAAGAGCTAAGCTGGAAACAGCATAGCAAGTTTAAATAAGGCTAGTCCGTTATCAACTTGAAAAAGTGGGGGCGAGTCGCCCCT | 1.018 | 
cr345 (nucleic acid, listed as DNA, chemistry not fully specified) guide: GTTTAAGAGCTAAGCTGGAACCAGCATAGCAAGTTTAAATAAGGCTAGTCCGTTATCAACTTGAAAAAGTGGCACCGAGTCGGTGCT | 1.021 | 
cr444 (nucleic acid, listed as DNA, chemistry not fully specified) guide: GTTTAAGAGCTAAGCTGGAAACAGCATAGCAAGTTTAAATAAGGCTAGTCCGTTATCAACTTGACAAAGTGGCACCGAGTCGGTGCT | 1.023 | 
cr801 (nucleic acid, listed as DNA, chemistry not fully specified) guide: GTTTAAGAGCTAAGCTGGAAACAGCATAGCAAGTTTAAATAAGGCTAGTCCGTTATCAGCTTGAAAAAGCGGAAGCGAGTCGCTTCT | 1.02 | 
cr334 (nucleic acid, listed as DNA, chemistry not fully specified) guide: GTTTAAGAGCTAAGCTGGAAACAGCATAGCAAGTTTAAATAAGGCTAGTCCGTTATCAAGTGGAAACACTGGCACCAAGTTGGTGCT | 1.025 | 
cr561 (nucleic acid, listed as DNA, chemistry not fully specified) guide: GTTTAAGAGCTAAGCTGGAAACAGCATAGCAAGTTTAAATAAGGCTTGTCCGTTATCAACTTGAAAAAGTGGCACCGAGTCGGTGCT | 1.021 | 
cr934 (nucleic acid, listed as DNA, chemistry not fully specified) guide: GTTTAAGAGCTAAGCTGGAAACAGCATAGCAAGTTTAAATAAGGCTTGTCCGTTACCAACTTGAAAAAGTGGCACCGATTCGGTGCT | 1.024 | 
cr978 (nucleic acid, listed as DNA, chemistry not fully specified) guide: GTTTAAGAGCTAAGCTGGAAACAGCATAGCAAGTTTAAATAAGGCTAGTCCGTTATCAACTTGAAAAAGTGGAAACGAGTCGTTTCT | 1.021 | 
cr888 (nucleic acid, listed as DNA, chemistry not fully specified) guide: GTTTAAGAGCTAAGCTGGAAACAGCATAGCAAGTTTAAATAAGGCTAGTCCGTTATCAACTTTACAAAGTGGCACCGAGTCGGTGCT | 1.02 | 
